# Assay results: article PMC11670252, “Antibody-mediated clearance of an ER-resident aggregate that causes glaucoma” (PNAS Nexus, 2024)
# Biological target: T1, endogenous full-length myocilin from conditioned media of primary human TM cells (Homo sapiens, UniProt Q99972)
# T1 construct: myocilin, human, endogenous, secreted into the medium; called full-length (~55 kDa); also called endogenous full-length myocilin (~55 kDa)
# Assay: immunoprecipitation; antibodies incubated with 15 mL conditioned medium of primary human TM cells without enrichment, or HBS buffer as control; myocilin found by Western blot
# Conditions: one partner purified
# T1 sequence (Q99972 33-504): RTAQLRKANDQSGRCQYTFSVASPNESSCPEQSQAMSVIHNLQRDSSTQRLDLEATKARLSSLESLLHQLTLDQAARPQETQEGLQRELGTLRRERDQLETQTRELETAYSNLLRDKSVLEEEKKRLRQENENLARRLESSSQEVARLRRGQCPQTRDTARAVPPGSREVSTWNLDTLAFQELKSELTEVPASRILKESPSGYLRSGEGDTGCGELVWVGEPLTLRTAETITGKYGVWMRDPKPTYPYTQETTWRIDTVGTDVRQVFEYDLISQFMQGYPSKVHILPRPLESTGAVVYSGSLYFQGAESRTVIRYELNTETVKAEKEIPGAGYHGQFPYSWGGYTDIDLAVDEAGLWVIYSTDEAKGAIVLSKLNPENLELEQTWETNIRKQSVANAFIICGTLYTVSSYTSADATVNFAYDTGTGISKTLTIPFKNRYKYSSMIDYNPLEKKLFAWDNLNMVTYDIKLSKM
binder,measurement,value
"anti-OLF1 chimeric IgG (murine variable domains, human IgG1/kappa constant domains) (antibody, V domains shown) VH: QVQLQQSGPELVKPGASVKISCKTSGYTFTENTMHWVRQSHGKSLEWIGGIHPNNIGSTYNQKFKGKATLTVDKSSSTAYMELRSLTSEDSAVYYCTRGATAPFAYWGQGTLVTVSA VL: DIVMTQTPLSLPVSLGDQASISCRSSQSIVHSNGNTYLHWYQQKSGQSPKLLIYKVSNRFSGVPDRFSGSGSGTDFTLKISRVEAEDLGVYFCSQSTHVPPTFGGGTKLEIK",binding result,binds
